“And” between values parts separate entries of the source, which are not always exact repeats. Identical values can stand only once.

Consider four molecules from patent US7186551B1, “3′-phosphoadenosine -5′-phosphosulfate synthetase 2 (PAPSS2) sequence variants” (Mayo Foundation for Medical Education and Research, priority 2001, dated 2007).

Holding throughout (format): biochemical, human
The subject of data set [1] is PAPSS2. Description: PAPSS2 enzyme activity, coupled radiochemical assay (PAPS generation then SULT1E1-catalyzed sulfation of [3H]estradiol) with COS-1 expressed recombinant allozymes. To be noted: for % WT activity / decrease in enzyme activity compared with the wild type enzyme: His-tagged recombinant allozyme, loxP-modified p91023(b) vector, COS-1 cells, corrected for transfection efficiency; for activity relative to the reference PAPSS2 (in words): general statement in the description. An excerpt:
Variant alleles of the four non-synonymous PAPSS2 cSNPs observed during the resequencing experiments were created using the QuickChange Site-Directed Mutagenesis Kit (Stratagene, La Jolla, Calif.), with wild type PAPSS2 cDNA in pUni as template. The sequence of the pUni insert was confirmed by completely sequencing both strands before recombination with the loxP-modified p91023(b) acceptor vector. pUni donor vectors that contained wild type and variant PAPSS2 cDNAs, as well as empty pUni, then were combined with the loxP-modified p91023(b) acceptor vector to generate the final expression constructs. In all cases, the fusion junctions of resultant expression constructs were sequenced to confirm that the construct was a dimer consisting of only a single donor and a single acceptor vector. These expression constructs were used to transfect COS-1 cells using TransFast™ reagent (Promega) with a 1:1 charge ratio. pSV-β-galactosidase (Promega) was co-transfected with each construct as an internal control to correct for transfection efficiency. Transfected COS-1 cells were harvested after 48 hours and were homogenized with a Polytron homogenizer (Brinkmann Instruments, Westbury, N.Y.) in 25 mM potassium phosphate buffer, pH 7.8, containing 1 mM dithiothreitol (DTT) and 1 mM EDTA. The homogenates were centrifuged at 15,000 g for 15 minutes, and the resultant supernatant preparations were used to perform enzyme assays, substrate kinetic studies and Western blot analyses. In some cases, aliquots of these cytosol preparations were stored at −80° C. prior to assay.
PAPSS2 Enzyme Activity: PAPSS2 activity was measured with a coupled radiochemical assay. See Xu et al., 2001, supra. Briefly, PAPS is generated from ATP and Na2SO4 in a PAPSS2-catalyzed reaction. The generated PAPS is then used as a substrate for the SULT1E1-catalyzed sulfate conjugation of [2,4,6,7-^3H]estradiol, a radioactively labeled sulfate acceptor substrate. The cell homogenate preparations of recombinant PAPSS2 allozymes described above were used for the activity studies without any further purification. The protein concentration of each recombinant protein preparation was determined by the dye-binding method of Bradford with bovine serum albumin (BSA) as a standard.
PAPS synthesis was catalyzed by recombinant wild-type PAPSS2 or PAPSS2 allozymes (present in the cell homogenate preparations described above) in the presence of 1 mM ATP, 16 mM Na2SO4, 1 mM MgCl2, and 2 mM DTT in 60 mM glycine-NaOH buffer, pH 8.6. Blank samples included the same quantity of COS-1 cytosol protein from cells that had been transfected with empty expression vector to make it possible to correct for endogenous activity. Reaction mixtures were incubated at 37° C. for 20 minutes, and then terminated by heating at 100° C. for 1 minute. An aliquot from this PAPS-generating reaction was then added to a second, coupled reaction containing recombinant human SULT1E1 isolated from COS-1 cells transfected with a SULT1E1 expression construct (see Aksoy et al., Biochem. Biophys. Res. Commun., 200:1621–1629 (1994)). The coupled reaction also included 27 nM [2,4,6,7-^3H]estradiol, 8 mM DTT and 1.25 mM MgCl2 in 10 mM potassium phosphate buffer, pH 6.5. The second, SULT1E1-catalyzed reactions were incubated at 37° C. for 20 minutes, and then terminated by the addition of KOH, followed by organic solvent extraction performed with chloroform. Radioactivity of the sulfate conjugated [2,4,6,7-^3H]estradiol in the aqueous phase after organic solvent extraction was then measured in a liquid scintillation counter. PAPSS activities of recombinant PAPSS2 allozymes were compared after correction for transfection efficiency by measuring the activity of cotransfected P-galactosidase. β-Galactosidase activity in the COS-1 cell preparations was measured with the β-Galactosidase Assay System (Promega) as described by the manufacturer. […]

The test system of data set [2] is PAPSS2. Description: Substrate kinetic studies of recombinant PAPSS2 with ATP and Na2SO4. The protocol:
To estimate apparent Km values of PAPSS2 for the two reaction cosubstrates, a series of ATP (0.125–4 mM) and Na2SO4 (0.125–16 mM) concentrations were tested with the recombinant allozymes. When ATP was the varied substrate, the concentration of Na2SO4 was 4 mM, and when Na2SO4 was the varied substrate, the concentration of ATP was 1 mM. Blanks for each substrate concentration were included by assaying COS-1 cell cytosol after transfection with empty vector.
Data Analysis: Apparent Km values were calculated by using the method of Wilkinson with a computer program written by Cleland. Wilkinson, Biochem. J., 80:324–332 (1961); and Cleland, Nature, 198:[…] (1963). Statistical comparisons of data were performed by ANOVA with the StatView program, version 4.5 (Abacus Concepts, Inc., Berkeley, Calif.). Apparent Km, S50 and Vmax values for the wild-type and variant PAPSS2 allozymes were compared by the use of unpaired Student's t-test.
Alterations in amino acid sequence can alter enzyme substrate affinity and/or catalytic efficiency. Decreased activity of the Val291Met allozyme—without a significant alteration in level of enzyme protein—could have resulted from a change in substrate kinetics. Therefore, a series of ATP (0.125–4 mM) and Na2SO4 (0.125–16 mM) concentrations were used to estimate apparent Km values for recombinant wild type PAPSS2 and for the Val291Met variant allozyme. […] ATP concentrations at which 50% maximal velocity was achieved (S50 values) were 0.70 and 0.95 mM for the wild type and variant allozymes, respectively (Table 4). In both cases, the Hill coefficient was greater than 2, […]. In contrast, substrate kinetics of both allozymes for Na2SO4 conformed to Michaelis-Menten predictions (FIG. 5B). […] In summary, decreased activity for the Val1291Met variant appeared to result from an alteration in substrate kinetics, while decreased activity for the Glu10Lys allozyme, in contrast, resulted primarily from a decrease in the quantity of enzyme protein. Because the Val291Met variant was encoded by a construct that contained the most common PAPSS2 nonsynonymous cSNP, these observations could have functional implications for the sulfate conjugation of both endogenous and/or exogenous compounds.

Data set [3] concerns PAPSS2. Description: PAPSS2 enzyme activity, coupled radiochemical assay (PAPS generation then SULT1E1-catalyzed sulfation of [3H]estradiol) with COS-1 expressed recombinant allozymes. The note with it: non-His-tagged expression vector p91023(b), COS-1 cells, corrected for transfection efficiency.

B1: Val291Met: PAPSS2 polypeptide allozyme having a methionine at amino acid 291 in place of valine (adenine at nucleotide 871) (protein)
chain: MSGIKKQKTENQQKSTNVVYQAHHVSRNKRGQVVGTRGGFRGCTVWLTGLSGAGKTTISFALEEYLVSHAIPCYSLDGDNVRHGLNRNLGFSPGDREENIRRIAEVAKLFADAGLVCITSFISPFAKDRENARKIHESAGLPFFEIFVDAPLNICESRDVKGLYKRARAGEIKGFTGIDSDYEKPETPERVLKTNLSTVSDCVHQVVELLQEQNIVPYTIIKDIHELFVPENKLDHVRAEAETLPSLSITKLDLQWVQVLSEGWATPLKGFMREKEYLQVMHFDTLLDDGMINMSIPIVLPVSAEDKTRLEGCSKFVLAHGGRRVAILRDAEFYEHRKEERCSRVWGTTCTKHPHIKMVMESGDWLVGGDLQVLEKIRWNDGLDQYRLTPLELKQKCKEMNADAVFAFQLRNPVHNGHALLMQDTCRRLLERGYKHPVLLLHPLGGWTKDDDVPLDWRMKQHAAVLEEGVLDPKSTIVAIFPSPMLYAGPTEVQWHCRSRMIAGANFYIVGRDPAGMPHPETKKDLYEPTHGGKVLSMAPGLTSVEIIPFRVAAYNKAKKAMDFYDPARHNEFDFISGTRMRKLAREGENPPDGFMAPKAWKVLTDYYRSLEKN
Turning to B1, in the data set on PAPSS2 [1], the “% WT activity” value was found to be 37.1 ± 6.9%, the “decrease in enzyme activity compared with the wild type enzyme” value turned out to be 62.9% and the “activity relative to the reference PAPSS2 (in words)” value is recorded as “reduced activity”. For the same molecule, the “S50 for ATP (ATP concentration at which 50% maximal velocity was achieved)” value in the data set with PAPSS2 [2] (ATP varied 0.125-4 mM, Na2SO4 4 mM) is 0.95 mM and 0.95 ± 0.02 mM. Further, in the data set on PAPSS2 [2] (apparent Km, Na2SO4 varied 0.125-16 mM, ATP 1 mM), the Km stood at 3000 µM. The “Vmax/S50, ATP” value in the data set on PAPSS2 [2] (ratio, wild type = 100, ATP as varied substrate) turned out to be 27.8 ± 3.3. For the same molecule, in the data set with PAPSS2 [2] (relative Vmax, wild type = 100, ATP as varied substrate), the “Vmax, ATP” value is listed as 37 ± 3.9. The “Vmax, Na2SO4” value in the data set on PAPSS2 [2] (relative Vmax, wild type = 100, Na2SO4 as varied substrate) was 45 ± 2.4. In the data set on PAPSS2 [3], the “activity reduced compared with wild type” value was found to be 57.4%.

B2: Met281Leu: PAPSS2 polypeptide allozyme having a leucine at amino acid residue 281 in place of methionine (thymine at nucleotide 841) (protein)
chain: MSGIKKQKTENQQKSTNVVYQAHHVSRNKRGQVVGTRGGFRGCTVWLTGLSGAGKTTISFALEEYLVSHAIPCYSLDGDNVRHGLNRNLGFSPGDREENIRRIAEVAKLFADAGLVCITSFISPFAKDRENARKIHESAGLPFFEIFVDAPLNICESRDVKGLYKRARAGEIKGFTGIDSDYEKPETPERVLKTNLSTVSDCVHQVVELLQEQNIVPYTIIKDIHELFVPENKLDHVRAEAETLPSLSITKLDLQWVQVLSEGWATPLKGFMREKEYLQVLHFDTLLDDGVINMSIPIVLPVSAEDKTRLEGCSKFVLAHGGRRVAILRDAEFYEHRKEERCSRVWGTTCTKHPHIKMVMESGDWLVGGDLQVLEKIRWNDGLDQYRLTPLELKQKCKEMNADAVFAFQLRNPVHNGHALLMQDTCRRLLERGYKHPVLLLHPLGGWTKDDDVPLDWRMKQHAAVLEEGVLDPKSTIVAIFPSPMLYAGPTEVQWHCRSRMIAGANFYIVGRDPAGMPHPETKKDLYEPTHGGKVLSMAPGLTSVEIIPFRVAAYNKAKKAMDFYDPARHNEFDFISGTRMRKLAREGENPPDGFMAPKAWKVLTDYYRSLEKN
Consider B2, for which, in the data set on PAPSS2 [1], the “% WT activity” value is 107.7% and 107.7 ± 2.9%; the “activity relative to the reference PAPSS2 (in words)” value is recorded as “activity that is comparable to the reference PAPSS2”.

B3: Arg432Lys: PAPSS2 polypeptide allozyme having a lysine at amino acid 432 in place of arginine (adenine at nucleotide 1295) (protein)
chain: MSGIKKQKTENQQKSTNVVYQAHHVSRNKRGQVVGTRGGFRGCTVWLTGLSGAGKTTISFALEEYLVSHAIPCYSLDGDNVRHGLNRNLGFSPGDREENIRRIAEVAKLFADAGLVCITSFISPFAKDRENARKIHESAGLPFFEIFVDAPLNICESRDVKGLYKRARAGEIKGFTGIDSDYEKPETPERVLKTNLSTVSDCVHQVVELLQEQNIVPYTIIKDIHELFVPENKLDHVRAEAETLPSLSITKLDLQWVQVLSEGWATPLKGFMREKEYLQVMHFDTLLDDGVINMSIPIVLPVSAEDKTRLEGCSKFVLAHGGRRVAILRDAEFYEHRKEERCSRVWGTTCTKHPHIKMVMESGDWLVGGDLQVLEKIRWNDGLDQYRLTPLELKQKCKEMNADAVFAFQLRNPVHNGHALLMQDTCRRLLEKGYKHPVLLLHPLGGWTKDDDVPLDWRMKQHAAVLEEGVLDPKSTIVAIFPSPMLYAGPTEVQWHCRSRMIAGANFYIVGRDPAGMPHPETKKDLYEPTHGGKVLSMAPGLTSVEIIPFRVAAYNKAKKAMDFYDPARHNEFDFISGTRMRKLAREGENPPDGFMAPKAWKVLTDYYRSLEKN
Turning to B3, in the data set with PAPSS2 [1], the “% WT activity” value was 104.8% and 104.8 ± 10.1%; the “activity relative to the reference PAPSS2 (in words)” value is reported as “activity that is comparable to the reference PAPSS2”.

B4: Glu10Lys: PAPSS2 polypeptide allozyme having a lysine at amino acid residue 10 in place of glutamic acid (adenine at nucleotide 28) (protein)
chain: MSGIKKQKTKNQQKSTNVVYQAHHVSRNKRGQVVGTRGGFRGCTVWLTGLSGAGKTTISFALEEYLVSHAIPCYSLDGDNVRHGLNRNLGFSPGDREENIRRIAEVAKLFADAGLVCITSFISPFAKDRENARKIHESAGLPFFEIFVDAPLNICESRDVKGLYKRARAGEIKGFTGIDSDYEKPETPERVLKTNLSTVSDCVHQVVELLQEQNIVPYTIIKDIHELFVPENKLDHVRAEAETLPSLSITKLDLQWVQVLSEGWATPLKGFMREKEYLQVMHFDTLLDDGVINMSIPIVLPVSAEDKTRLEGCSKFVLAHGGRRVAILRDAEFYEHRKEERCSRVWGTTCTKHPHIKMVMESGDWLVGGDLQVLEKIRWNDGLDQYRLTPLELKQKCKEMNADAVFAFQLRNPVHNGHALLMQDTCRRLLERGYKHPVLLLHPLGGWTKDDDVPLDWRMKQHAAVLEEGVLDPKSTIVAIFPSPMLYAGPTEVQWHCRSRMIAGANFYIVGRDPAGMPHPETKKDLYEPTHGGKVLSMAPGLTSVEIIPFRVAAYNKAKKAMDFYDPARHNEFDFISGTRMRKLAREGENPPDGFMAPKAWKVLTDYYRSLEKN
With B4, in the data set with PAPSS2 [1], the “% WT activity” value is reported as 72.6 ± 7.2%, the “decrease in enzyme activity compared with the wild type enzyme” value came out at 27.4% and the “activity relative to the reference PAPSS2 (in words)” value is “reduced activity”. The “activity reduced compared with wild type” value with PAPSS2 [3] is given as 14.1%.
